In patent US20090118167A1, “Selective Vpac2 Receptor Peptide Agonists” (Eli Lilly and Company Patent Division, priority 2004, published 2009):
Square brackets hold non-standard residues; d marks the D form. Ends that are not written are not given here. Nle = CCCC[C@H](N)C(=O)O; Orn = NCCC[C@H](N)C(=O)O; Aib = CC(C)(N)C(=O)O

T1: human PAC1 (Homo sapiens, UniProt P41586)
T1 construct: expressed in transfected cells; membranes)
T1 sequence (P41586 21-468): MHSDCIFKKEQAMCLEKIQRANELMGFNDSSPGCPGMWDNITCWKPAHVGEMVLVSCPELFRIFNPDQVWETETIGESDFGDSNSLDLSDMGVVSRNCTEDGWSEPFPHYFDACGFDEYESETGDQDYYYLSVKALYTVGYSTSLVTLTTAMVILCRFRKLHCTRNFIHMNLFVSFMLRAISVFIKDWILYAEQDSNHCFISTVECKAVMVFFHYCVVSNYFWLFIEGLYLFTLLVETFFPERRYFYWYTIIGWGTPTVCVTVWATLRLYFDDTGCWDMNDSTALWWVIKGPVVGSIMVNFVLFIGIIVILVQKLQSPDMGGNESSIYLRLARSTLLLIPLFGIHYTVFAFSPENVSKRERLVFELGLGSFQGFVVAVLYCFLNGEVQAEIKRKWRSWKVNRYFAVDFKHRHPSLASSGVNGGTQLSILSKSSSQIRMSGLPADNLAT

T2: human VPAC1 (Homo sapiens, UniProt P32241)
T2 construct: expressed in transfected cells
T2 sequence (P32241 31-457): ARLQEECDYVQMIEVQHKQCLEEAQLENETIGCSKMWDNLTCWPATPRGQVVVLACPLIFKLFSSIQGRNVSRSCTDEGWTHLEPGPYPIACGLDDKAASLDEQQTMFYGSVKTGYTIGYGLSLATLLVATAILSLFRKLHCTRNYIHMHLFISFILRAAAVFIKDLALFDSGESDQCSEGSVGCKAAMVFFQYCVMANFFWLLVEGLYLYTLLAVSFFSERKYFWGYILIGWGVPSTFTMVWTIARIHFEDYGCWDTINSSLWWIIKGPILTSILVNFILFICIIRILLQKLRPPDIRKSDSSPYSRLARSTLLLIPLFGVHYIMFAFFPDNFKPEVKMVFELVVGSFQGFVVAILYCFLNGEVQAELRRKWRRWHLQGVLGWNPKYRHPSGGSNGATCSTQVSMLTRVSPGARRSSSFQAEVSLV

T3: human VPAC2 receptor (human, UniProt P41587 24-438)
T3 construct: whole, on cells; cAMP Alpha screen assay: whole cells
T3 sequence (looked up): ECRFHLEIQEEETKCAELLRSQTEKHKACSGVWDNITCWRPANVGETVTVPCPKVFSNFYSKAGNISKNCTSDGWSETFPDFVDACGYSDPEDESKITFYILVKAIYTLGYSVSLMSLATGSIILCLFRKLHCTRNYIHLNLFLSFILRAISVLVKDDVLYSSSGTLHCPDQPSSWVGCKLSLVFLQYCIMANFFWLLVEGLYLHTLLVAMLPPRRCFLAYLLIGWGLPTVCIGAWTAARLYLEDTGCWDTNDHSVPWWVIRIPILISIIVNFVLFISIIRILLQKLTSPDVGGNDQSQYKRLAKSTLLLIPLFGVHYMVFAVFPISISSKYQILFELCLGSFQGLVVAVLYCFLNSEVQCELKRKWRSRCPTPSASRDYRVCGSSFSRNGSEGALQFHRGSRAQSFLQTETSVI

T4: rat VPAC2 receptor (rat, UniProt P35000 23-437)
T4 sequence (looked up): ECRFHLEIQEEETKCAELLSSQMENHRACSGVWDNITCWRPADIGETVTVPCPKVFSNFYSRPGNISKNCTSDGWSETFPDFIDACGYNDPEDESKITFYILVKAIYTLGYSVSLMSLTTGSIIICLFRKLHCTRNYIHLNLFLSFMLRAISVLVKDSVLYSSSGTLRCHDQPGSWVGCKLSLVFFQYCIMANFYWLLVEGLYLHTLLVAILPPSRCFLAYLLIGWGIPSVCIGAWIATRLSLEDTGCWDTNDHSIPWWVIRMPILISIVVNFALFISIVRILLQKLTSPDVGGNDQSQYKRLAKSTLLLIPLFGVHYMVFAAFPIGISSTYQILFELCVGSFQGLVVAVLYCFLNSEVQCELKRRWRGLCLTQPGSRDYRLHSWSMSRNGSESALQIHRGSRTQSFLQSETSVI

T5: rat VPAC1 receptor (rat, UniProt P30083 31-459)
T5 sequence (looked up): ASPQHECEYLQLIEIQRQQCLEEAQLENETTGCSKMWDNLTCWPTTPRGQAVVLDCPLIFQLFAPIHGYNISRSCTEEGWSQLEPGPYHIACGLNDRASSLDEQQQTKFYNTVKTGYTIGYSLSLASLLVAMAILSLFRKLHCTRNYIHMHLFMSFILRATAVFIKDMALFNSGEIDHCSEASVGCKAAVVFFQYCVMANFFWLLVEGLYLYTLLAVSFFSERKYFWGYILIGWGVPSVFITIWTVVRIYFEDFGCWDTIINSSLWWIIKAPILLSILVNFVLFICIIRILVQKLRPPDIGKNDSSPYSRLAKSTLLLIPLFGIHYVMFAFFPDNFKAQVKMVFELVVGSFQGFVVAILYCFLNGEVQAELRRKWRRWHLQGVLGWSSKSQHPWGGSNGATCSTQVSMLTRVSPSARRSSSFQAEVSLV

B1: P463 (cyclic PEGylated VPAC2 receptor peptide agonist) (peptide)
peptide: HSDAVFTENYT[Orn]LR[Aib]Q[Nle]AA[Orn]KYLNDL[Orn][Orn]GGPSSGAPPPC
modifications: also: cyclic by a side-chain bridge (lactam or disulfide), places not given here, PEGylated, site not given here
B2: P239 (cyclic PEGylated VPAC2 receptor peptide agonist) (peptide)
peptide: HSDAVFTENYTKLRKQ[Nle]AAKKYLNDLKQGGPSSGAPPPC
modifications: ends and bridges not checked; also: further groups not given here
B3: P201 (cyclic PEGylated VPAC2 receptor peptide agonist) (peptide)
peptide: HSDAVFTENYTKLRKQ[Nle]AAKKYLNDLKKGGPSSGAPPPC
modifications: not fully specified (residue 39); ends and bridges not checked; also: further groups not given here
B4: P376 (cyclic PEGylated VPAC2 receptor peptide agonist) (peptide)
peptide: HSDAVFTENYT[Orn]LR[Aib]Q[Nle]AA[Orn]KYLNDL[Orn][Orn]GGPSSGAPPPC
modifications: not fully specified (residue 39); also: cyclic, bridge type and places not given here, PEGylated, site not placed
B5: P255 (cyclic PEGylated VPAC2 receptor peptide agonist) (peptide)
peptide: HSDAVFTENYTKL[Aib]KQ[Nle]AAKKYLNDLKQGGPSSGAPPPC
modifications: ends and bridges not checked; also: further groups not given here

Columns and labels:
human PAC1 = biological target: T1, human PAC1; test: Filter binding assay, 125I-labeled PACAP-27 tracer; settings: membranes from cells transiently transfected with human PAC1; read-out: Human receptor binding IC50 PAC1
Method: (§1) In order to prepare the filter plates, the presoak solution is aspirated by vacuum filtration. The plates are flushed twice with 200 μL flush buffer. 200 μL blocking buffer is added to the filter plate. The filter plate is then incubated with 200 μL presoak solution for 1 hour at room temperature.
(§2) The assay plate is filled with 25 μL assay buffer, 25 μL membranes (2.5 μg) suspended in assay buffer, 25 μL compound (agonist) in assay buffer, and 25 μL tracer (about 40000 cpm) in assay buffer. The filled plate is incubated for 1 hour with shaking.
(§3) The transfer from assay plate to filter plate is conducted. The blocking buffer is aspirated by vacuum filtration and washed two times with flush buffer. 90 μL is transferred from the assay plate to the filter plate. The 90 μL transferred from assay plate is aspirated and washed three times with 200 μL flush buffer. The plastic support is removed. It is dried for 1 hour at 60° C. 30 μL Microscint is added. The count is performed.
(§4) Values reported are single results or the mean of two or more independent runs.

[1] = rat, in vivo, sc, 0.1 mg/kg
Method: Healthy Fisher 344 rats (3 animals per group) are injected with 100 μg compound/kg (compound amount based on peptide content and dissolved in PBS buffer). […] PK parameters are then calculated using a model-independent method (WinNonlin Pro, Pharsight Corp., Mountain View, Calif., USA).

Normal Wistar rats = test: Intravenous glucose tolerance test (IVGTT); assay type: in vivo, rat; settings: 10 min between glucose and compound
Method: Intravenous glucose tolerance test (IVGTT): Normal Wistar rats are fasted overnight and are anesthetized prior to the experiment. A blood sampling catheter is inserted into the rats. The compound is given in the jugular vein. Blood samples are taken from the carotid artery. A blood sample is drawn immediately prior to the injection of glucose along with the compound. After the initial blood sample, glucose mixed with compound is injected intravenously (i.v.). Compound may also be injected intravenously or subcutaneously prior to the glucose challenge. A glucose challenge of 0.5 g/kg body weight is given, injecting a total of 1.5 mL vehicle with glucose and agonist per kg body weight. The peptide concentrations are varied to produce the desired dose in μg/kg. Blood samples are drawn at 2, 4, 6 and 10 minutes after giving glucose. The control group of animals receives the same vehicle along with glucose, but with no compound added. In some instances, a 30 minute post-glucose blood sample is drawn. Aprotinin is added to the blood sample (250-500 kIU/ml blood). The serum is then analyzed for glucose and insulin using standard methodologies.
The assay uses a formulated and calibrated peptide stock in PBS. Normally, this stock is a prediluted 100 μM stock. However, a more concentrated stock with approximately 1 mg agonist per mL is used. The specific concentration is always known. Variability in the maximal response is mostly due to variability in the vehicle dose.

human VPAC1 = biological target: T2, human VPAC1; test: Filter binding assay, 125I-labeled VIP tracer; settings: membranes from cells transiently transfected with human VPAC1; read-out: Human receptor binding IC50 VPAC1
Method: as §1, §2, §3, §4

human VPAC2 receptor [2] = biological target: T3, human VPAC2 receptor; test: filter binding assay, human VPAC2 membranes, displacement of 125I-VIP
Method: as §2, §3

human VPAC2 receptor [3] = biological target: T3, human VPAC2 receptor; test: cell-based or functional assay
rat VPAC2 receptor = biological target: T4, rat VPAC2 receptor; test: cell-based or functional assay
rat VPAC1 receptor = biological target: T5, rat VPAC1 receptor; test: cell-based or functional assay

Row | Molecule | IC50 (human PAC1) | AUC0-last [1] | Cl/F [1] | Vd/F [1] | % increase AUC (insulin, 0-10 min after glucose) (Normal Wistar rats; Dose 0.5 μg/kg) | % increase AUC (insulin, 0-10 min after glucose) (Normal Wistar rats; Dose 5 μg/kg) | % increase AUC (insulin, 0-10 min after glucose) (Normal Wistar rats; Dose 15 μg/kg) | % increase AUC (insulin, 0-10 min after glucose) (Normal Wistar rats; Dose 50 μg/kg) | IC50 (human VPAC1) | IC50 (human VPAC2 receptor [2]) | EC50 for cAMP generation, Alpha screen (human VPAC2 receptor [3]) | EC50 for cAMP generation, DiscoveRx, CHO-PO cells (rat VPAC2 receptor) | EC50 for cAMP generation, DiscoveRx, CHO-PO cells (rat VPAC1 receptor)
1 | P257: cyclic PEGylated VPAC2 receptor peptide agonist (HSDAVFTENYTKL[Aib]KQ[Nle]AAKKYLNDLKKGGPSSGAPPPC; not fully specified (residue 39); ends and bridges not checked; also: cyclic, bridge type and places not given here, PEGylated, site not placed) [Agonist P257] | > 3 µM | 4396 ng·h/mL | 23 mL/h/kg | 425 mL/kg | +14% | +114% | +158% | +230% | > 25 µM | – | – | – | –
2 | P348: cyclic PEGylated VPAC2 receptor peptide agonist (HSDAVFTENYTKLR[Aib]Q[Nle]AAKKYLNDLK[Aib]KGGPSSGAPPPC; not fully specified (residue 40); ends and bridges not checked; also: cyclic, bridge type and places not given here, PEGylated, site not placed) [Agonist P348] | > 25 µM | 1007 ng·h/mL | 90 mL/h/kg | 2224 mL/kg | – | – | – | – | > 1.5 µM | – | – | – | –
3 | B1 | – | – | – | – | – | – | – | – | – | > 100 nM | 365 nM | 182 nM | 184 nM
4 | B2 | – | – | – | – | – | – | – | – | – | 8.33 nM | 4.42 nM | 11.2 nM | 27.8 nM
5 | B3 | – | – | – | – | – | – | – | – | – | 4.11 nM | 7.82 nM | 13.2 nM | 20.8 nM
6 | B4 | – | – | – | – | – | – | – | – | – | 4.89 nM | 4.71 nM | 9.13 nM | 48.4 nM
7 | B5 | – | – | – | – | – | – | – | – | – | > 100 nM | 111 nM | 51.4 nM | > 350 nM
